Results from the nanobody polyreactivity screen of Harvey et al. (2022).

test: yeast display, Sf9 membrane polyspecificity reagent, FACS + sequencing; frameworks hold sequencing errors
In short: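 A synthetic nanobody library was expressed on Saccharomyces cerevisiae BJ5465 by galactose induction for 36–48 hours. The library was stained for 1 hour at 4 °C with 10% biotinylated, detergent-solubilized Sf9 membrane reagent and enriched with streptavidin microbeads before FACS. Low and high (top ~1%) gates were set on anti-HA fluorescence for expression and streptavidin fluorescence for reagent binding, and each polyreactivity label reflects the gate of origin.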

Row | Sequence | polyreactivity (PSR sort gate)
1 | QVQLVESGGGLVQAGGSLRLSCAASGSIFYENAMGWYRQAPGKERELVAAISRSGGSTYYADSVKGRFTISRDNAKNTVYLQMNSLKPEDTAVYYCAADVYVFIGDYWGQGTQVTVSS | low polyreactivity
2 | QVQLVESGGGLVQAGGSLRLSCAASGRIFQRYAMGWYRQSPGKERELVAGITSSGGSTYYADSVKGRFTISRDNAKNTVYLQMNSLKPEDTAVSYCNAGGELCYYGYRAGCTTRSYDYWGQGTLVTVSS | low polyreactivity
3 | QVQLVESGGGLVQAGGSLRLSFAASGYIFYPNVMGWYRQAPGKERELVADISSGGSTNYADSVKGRFTISRDNAKNTVYLQINSLKPEDTAVYYCAKGPRLYFTRDKAHWKYDYWGQGTQVTVSS | low polyreactivity
4 | QFQLVESGGGLVQAGGSLRLSCAASGRTFGSNVRGWYRQAPGKERELVAAISVSGGSTYYADSVKGRFTISRDNAKNTVYLQMNSLKPDDTAVYYCAADYPTLGYTQNDYWGQGTQVTVSS | low polyreactivity
5 | QVQLVESWGGLVQAGGSLRLSCAASGRTLGYNAMGWYRQAPGKERELVATISYNGGRTYYADSVKGRFTISRDNAKNTVYLQMNSLKPEDTAVYYCNTRYRWIRRSLFDYWGQGTQVTVSS | high polyreactivity
6 | QVQLVESGGGLVQAGGSLRLSCAASGSIFARNAMGSYRQAPGKERELVAAITVRGRTNYADSVKGRFTISRDNAKNTVYLQMNSLKPDDTAVYYCAASLWDDDSRLMYYWGQGTQVTVSS | high polyreactivity
7 | QVQHVESGGGLVQAGGSLRLSGAASGSTFPTIAMGWNRQAPGKEREWVADITIRAGGTSYADSVKGRFTISRDNAKNSVYLQMNSLKPQDTAVFYCARSKSSELKRLLYDSWGEGTQVTVSS | low polyreactivity
8 | QVQLVESGGGLVQAGGSLRLSCAASGRTFHYNAMGWYRQAPGKERELVAAITRSGGSTYYADSVKGRFTISRDNAKNTVYLQMNSLKPEDTAVYYCAAGWRSVSVRYYGPSDYWGQGTQVTVSS | low polyreactivity
9 | QVQLVESGGGLVQAGGSLRLSCAASGRILGYYGMGWYIQAPGKERELVAAITSGGGSTYYADSVKGRFTISRDNAKNTVYLQMNSLKPEDTAVYYCNAVPSQHDEFDYWGQGTQVTVSS | low polyreactivity
10 | QVQLEESGGGLVQAGGSLRLSCAASGSIFGNAMGWYRQAPGKEREFVAAISSSGSSTYYADSVKGRFTISRDNAKNTVYLQMNSLKPEDTAVYYCAKRRRSADPKYDYWGQGTQVTVSS | high polyreactivity
11 | QDQLVESGGGLVQAGGSLRLSCAASGSIFPDYVMGWYRQAPGKERELVAAISASGGSTYYADSVKGRFTISRDNEKNTVYLKMNSLKPEDTAVYYCNASPKTYLRRKYDYWGQGTQVTVSS | high polyreactivity
12 | QVQLVESGGGLVQAGGSLRLSCAASGLIFPYYAMGWNRQAPGKESELVAASSGSGGRTYYADSVKGRFTISRDNAKITVYLQMNSRKPEDTAVYYCAAAVLDSYTRYIWYIYDYWGQGTQVTVSS | high polyreactivity
13 | QVQLVESGGGLVQAGGSLRLSCAASGFTFRKNVMGWYRQATGKERELVAVISSSGGSTYYADSVKGRFTISRDNAKNTVYLPMNRLKPEVTAVYYCNAGRYGSNLEYWGQGTQLTVSS | low polyreactivity
14 | QVQLVESGGGLVQAGGSLRLSCAASGGTFRWNARGWYRQAPGKERELVAAITKSGGSTYYADSVKGRFTISRDIAKNTVYLQMNSLKPEDTAVYYCATDYLRRRDYWGQGTQVTVSS | high polyreactivity
15 | QVQLVESGGGLVQAGGRLRLSSAASGFIFWYYAMGWYRQEPGKERELVAAITSGGNTNYADSVKGRFTISRDNAKNTVYLQMNSLKPEDTAVYYCATGRASGREHDSWGQGTQVTVSS | low polyreactivity
16 | QVQLVESGGGLVQAGGSLRLSCAASGFTFHRNAMGWYRQAPGKERELVAAITLNGGSSTYYADSVKGRFTISRDNAKNTVYLQMNSLKPEDTAVYYCARDSYSYTFSKNSDPAEYDYWGQGTQVTVSS | low polyreactivity
17 | QVHLVESGGGLVQAGGSLRLSCAASGIIFYYNAMGWYRQAPGKERELVAVISSAGNTNYADSVKGRFTISRDNAKNTVYLQMNCLKPEDTAVYYCAAGTISRIDERNYFKMDYWGQGTQVTVSS | low polyreactivity
18 | QVQLVESGGGLVQAGGSLRLSCAASGRIFQWYAMGWNRQAPGKERELVAAISWRGGSTYYADSVKGRFTISRDNAKNTVYLQMNSLKPEDTAVYYCNAVRRASSGYDYWGHGTQVTVSS | high polyreactivity
19 | QVQIVESGGGLVQAGGSLRLSCAASGSIFVNNAMGWYRQAPGKVRELVARISFSGGSTYYADSVKGRFTISRDNAKNTVYLQMISLNPEDTAVYYCAKTVLRTESGWWIKFDYWGQVTQVTVSS | low polyreactivity
20 | QVQLVESGGGLVQAGGSLRLSCAASGSTLIEYAKGWYRQAPGKERELVARISKSGDSTYYADSVKGRFTISRDNAKNTVYLQMNSLKPEDTAVYYCAKYHRDGFYRSYWFRYDYWGQGTQVTVSS | low polyreactivity

Row | Sequence | polyreactivity (PSR sort gate)
21 | QVQLVDSGGGLVQAGGSLRLSCAASGFIFQYYAMGWYRQAPGKEMGLVAAISFSGGSTYYADSVKGRFTISRDNAKNTVYLQMNSLKPEDTAVYYCAAEVYSVGDYSGHDYYWGQGTQVTVSS | low polyreactivity
22 | QVQLVESGGGLVQAGGSLRLSFAASGRTFSRYAMVWYRQAPGKERELVATISFGGSTYYADSVKGRFTISRDNAKNTVYLQMNSLKPEDTALYYCTARYYLNYRGRKYESWGQGTQVTVSS | high polyreactivity
23 | QVQLVESGGGLVQAGGCLRLSCAASGRIFTTNPMGWYRPAPGKERELVARITYSGTSTYYADSVKGRFTISRDNAMNTVYLQMNSLKPEDTAVYYCAAKVWWRKYQLLDYYYWGQGTQVTVSS | high polyreactivity
24 | QVQLVESGGGLVQAGGSLRLSCAASGYIFLGYAMGWYRQAPGKERELVAAISSRGGSTYYADSVKGRFTISRDNAKNTVYLQMNSLKPEDTAVYYCAAYRFSDRAAYGYYDRHYYWGQGTQVTVSS | high polyreactivity
25 | QVQLVESGGGLVQAGGSLRLSCAASGRTFYGNAMGWYRQAPGKERELVAAITSGGGSTRYADSVKGRFTISRDNAKNTVYLQMNSLKPEDTAVYYCNATLGNFGYRRYSGHTRYYYWGQGTQVTVSS | high polyreactivity
26 | QVQLVESGGGLVQAGGSLRLSCAASGSIFYIYVMGWYRQAPGKERELVAAISSGGTTNYADSVKGRFTISRDNAKNTVYLQMNSLIPEDTAVYYCAADVLIARYPGYSYEYWGQGTQVTVSS | low polyreactivity
27 | QVQIVESGAGLVQAGGSLRISCAPSGLTFGYYAMGWYRQAPGKERELVAAISSSGVNTYYADSVKGRFTISRDNAKNTVYLQMNSLKPEDTAVYYCNTVPKPWYSWKYAYDYWGHGTQVTVSS | high polyreactivity
28 | QVQLVESGGGLVQAGGSLLLSCAASGFTFGFNAMGWYRQAPGQERELGAAISRGGSTNYADSVKGRFTISRDNAKNTVYVQMNSLKPEDTAVYDCAADFITYVFRFYYWGQGTLVTVSS | low polyreactivity
29 | QVQLVESGGGLVQAGGSLRLSCAASGSILLRYAMGWYRQAPGKEWELVAAIRTIGASTYYADSVKGRFTISRYNAMITVYLQMNSLKPDDTAVYYCNAESASYWYRPGYDYWGQGNQVTVSS | low polyreactivity
30 | QVQLVESGGGLVQAGGSLRLSCAASGFTFEDNTMGWYRQAPGKERELVAAITWGGVSTYYADSVKGRFTISRDNAKNTVYLQMNSLKPEDTAVYYCARDYDVYTVYLMDYWGQGTQVTVSS | low polyreactivity
31 | QVQHVESGGGLVQAGGSLRLSCAASVRTLYYYAMGWYRQAPGKERELVAAISGGGRTYYADSVKGRFTISRDNAKNTVYLQMNSLKPEDTAVYYCASRYRKSGLDNYWGQGTQVTVSS | high polyreactivity
32 | QVQLVESGGGLVQAGGSLRLICAASGSTFKRYAMGWYRQAPGKERELVAAISTRGSTYYADSVKGRFTISRDNAKNTVYLQMNSLKPEDTAVYYCNARQALVWKWSWYSPGYDYWGQGTQVTVSS | low polyreactivity
33 | QVKLVESGGALVQAGCSLRLSCAASARTFPVYAMGWYRQAPGKERELVAAIRYSAGSTYYADSVKGRFTISRDNAKITVYLQMNSLKPEDSSVSYCARTTPTGRQYRRYDYWGQGTQLTVSS | low polyreactivity
34 | QVQLVESGGGLVQAGGRLRLICAASGRIFYSYAMGWYRQAPGKERELVAAISFSVGSTYYADSVKGRFTISRDNAKNTVYLQMNSLKPEDTAVYYCAASLGFPGYEYWGQGTQVTVSS | low polyreactivity
35 | QVQLVESGGGLVQAGGSLRLSCAASGFTFYWYDMGWYRQAPGKEWELVATMSPGGGTNYADSVKGRFTISRDNAKNTVSLQMNSLKPEDTSVYYCAADGSAGYQWGYDFEGDYWGQGTQLTVSS | high polyreactivity
36 | QVQLVESGGGLVQAGGSLRLSCAASGFIFAYYAMGRYRQAPGKEREFVAVINWSGGITYYADSVKGRFTISRDNAKNTVYLQMNSLKPEDTAVYYCAADELAGYDYWGQGTQVTVSS | low polyreactivity
37 | QVQLVESGGGLVQAGGSLRLSCAASGSIFKVNAMGWYRQAPGKEWELVARTYYADSVKGRFTISRDNAKNTVYLQMNSLKPEDTAVYYCAASRGIYNPYDYWGQGTQVTVSS | low polyreactivity
38 | QVQLVESGGGLVQAGGSLRLSCAASGRIFYWYVMGWYIQAPGKERELVATIRYSGGNTYYADSVKGRFTISRDNAKNTVYLQMNSLKPEDTAVYYCAAGSLYWGRSPTRGGQGGYWGQGTQVTVSS | high polyreactivity
39 | QVQLVESRGGLVQAGGSLRLSCAASGSIFGTNAMGRNRQAPGKERELVAAINSGGSTNYADSVKGRFTISRDNAKNTVYLQMNSLKPEDTAVYYCAADEGLWSPSRNAYDYDYWGQGTQVTVSS | low polyreactivity
40 | QVQLVESGGGLVQAGGSLRLSCAASGRTFGVNAMGWYRQAPGKERELVAAIDSSGGSTYYADSVKGRFTISRDNAKNTVYLQMNSLKPEDTAVYYCAGPYRPDYDYWGQGTQVTVSS | high polyreactivity
